Target: the molecule itself
Assay: dynamic light scattering

B1: D48V-GLTP (human glycolipid transfer protein, D48V mutant) (natural protein, UniProt Q9NZD2 1-209, looked up)
chain: MALLAEHLLKPLPADKQIETGPFLEAVSHLPPFFDCLGSPVFTPIKAVISGNITKIKAVYDTNPAKFRTLQNILEVEKEMYGAEWPKVGATLALMWLKRGLRFIQVFLQSICDGERDENHPNLIRVNATKAYEMALKKYHGWIVQKIFQAALYAAPYKSDFLKALSKGQNVTEEECLEKIRLFLVNYTATIDVIYEMYTQMNAELNYKV
stoichiometry N: 2

Source: PMC3220887 (Structure (London, England : 1993), 2011)
